These results are taken from the Immune Epitope Database (IEDB).

Assay [1] has as its target HLA-A*02:01. The assay is described as follows: IEDB peptide-MHC binding, purified MHC/competitive/fluorescence; filed as Kd, often an IC50 or EC50 that approximates it; ≥ and ≤ were set here for values at or beyond the usual limits of such assays.
The next assay addresses HLA-A*02:03. The assay is described as above.
The next assay addresses HLA-A*02:12. The description is as above.
The target in a further assay is HLA-A*02:16. The assay is described as above.
The target of another assay is HLA-A*02:19. The description is as above.
The target in assay [2] is HLA-A*03:01. Described as above.
In a further assay the target is HLA-A*24:03. The assay is described as above.
Another assay addresses HLA-A*26:01. The assay is described as above.
A further assay concerns the target HLA-A*68:02. The description is as above.
The target in the next assay is HLA-A*69:01. The description is as above.
Assay [3] concerns the target HLA-B*15:01. The description is as above.
The target in assay [4] is HLA-B*15:17. The assay is described as above. The conditions noted are these: source organism: Burkholderia pseudomallei K96243.
For another assay, the target named is HLA-B*18:01. The assay is described as above.
A further assay deals with HLA-B*27:03. Described as above.
In another assay the target is HLA-B*39:01. The description is as above.
The target of assay [5] is HLA-B*46:01. The description is as above.
Assay [6] has as its target HLA-B*51:01. The assay is described as above.
The target of assay [7] is HLA-B*57:01. Described as above.
For another assay, the target named is HLA-A*02:11. Described as above.
The next assay addresses HLA-A*23:01. The description is as above.
For a further assay, the target named is HLA-A*29:02. Described as above.
Assay [8] deals with HLA-A*31:01. The description is as above. The conditions noted are these: source organism: Entamoeba histolytica HM-1:IMSS.
A further assay concerns the target HLA-A*01:01. The assay is described as follows: IEDB peptide-MHC binding, purified MHC/direct/fluorescence; filed as Kd, often an IC50 or EC50 that approximates it; ≥ and ≤ were set here for values at or beyond the usual limits of such assays. Particulars: source organism: Mycobacterium tuberculosis.
The target of assay [9] is HLA-A*02:01. The description is as above. The conditions noted are these: source organism: Mycobacterium tuberculosis.
Assay [10] concerns the target HLA-A*03:01. The description is as above. The conditions noted are these: source organism: Mycobacterium tuberculosis.
Assay [11] concerns the target HLA-A*31:01. Described as above. The conditions noted are these: source organism: Mycobacterium tuberculosis.
Assay [12] has as its target HLA-B*15:01. The assay is described as above. The conditions noted are these: source organism: Mycobacterium tuberculosis.
The target of another assay is HLA-B*15:09. Described as above. Particulars: source organism: Mycobacterium tuberculosis str. Haarlem.
Assay [13] deals with HLA-B*15:17. The assay is described as above. Particulars: source organism: Mycobacterium tuberculosis.
In another assay the target is HLA-B*27:05. The description is as above. The conditions noted are these: source organism: Mycobacterium tuberculosis.
The target in the next assay is HLA-B*40:01. The assay is described as above. Particulars: source organism: Mycobacterium tuberculosis.
Assay [14] concerns the target HLA-B*46:01. The description is as above. Particulars: source organism: Mycobacterium tuberculosis.
A further assay deals with HLA-B*48:01. The assay is described as above. Particulars: source organism: Mycobacterium tuberculosis.
Assay [15] deals with HLA-B*51:01. The description is as above. Particulars: source organism: Mycobacterium tuberculosis.
The target of assay [16] is HLA-B*57:01. Described as above. The conditions noted are these: source organism: Mycobacterium tuberculosis.
Another assay concerns the target HLA-B*58:01. The assay is described as above. The conditions noted are these: source organism: Mycobacterium tuberculosis.
A further assay addresses HLA-A*11:01. Briefly: IEDB peptide-MHC binding, purified MHC/competitive/fluorescence; filed as Kd, often an IC50 or EC50 that approximates it; ≥ and ≤ were set here for values at or beyond the usual limits of such assays. The conditions noted are these: source organism: Mycobacterium tuberculosis variant bovis BCG str. Pasteur 1173P2.
The target of a further assay is HLA-A*30:01. The description is as above. Particulars: source organism: Mycobacterium tuberculosis variant bovis BCG str. Pasteur 1173P2.
The target of the next assay is HLA-B*08:01. The description is as above. Particulars: source organism: Mycobacterium tuberculosis variant bovis BCG str. Pasteur 1173P2.
Setting [17] is: source organism: Burkholderia pseudomallei K96243.
Setting [18] is: source organism: Cryptosporidium parvum Iowa II.
[19] abbreviates: source organism: Entamoeba histolytica HM-1:IMSS.
Where [20] appears, read: source organism: Mycobacterium tuberculosis variant bovis BCG str. Pasteur 1173P2.
Setting [21] is: source organism: Human immunodeficiency virus 1.

As for SELTVSPPD, the dissociation constant Kd in the assay with HLA-A*02:01 [1] (setting [17]), with HLA-A*02:03 (setting [17]), in the assay with HLA-A*02:12 (setting [17]), with HLA-A*02:16 (setting [17]), with HLA-A*02:19 (setting [17]) and with HLA-A*03:01 [2] (setting [17]) was not below 20 µM in each case. The dissociation constant (Kd) in the assay with HLA-A*24:03 (setting [17]), with HLA-A*26:01 (setting [17]), with HLA-A*68:02 (setting [17]), with HLA-A*69:01 (setting [17]), in the assay with HLA-B*15:01 [3] (setting [17]) and in the assay with HLA-B*15:17 [4] was not below 20 µM each time. The equilibrium dissociation constant (Kd) is 0.845 µM with HLA-B*18:01 (setting [17]); not below 20 µM with HLA-B*27:03 (setting [17]); not below 20 µM with HLA-B*39:01 (setting [17]); not below 20 µM with HLA-B*46:01 [5] (setting [17]); not below 20 µM with HLA-B*51:01 [6] (setting [17]); not below 20 µM with HLA-B*57:01 [7] (setting [17]).

On to LTAPCDIYV, for which the equilibrium dissociation constant (Kd) in the assay with HLA-A*02:01 [1] (setting [18]) was not below 20 µM; in the assay with HLA-A*02:11 (setting [18]), not below 20 µM; in the assay with HLA-A*02:16 (setting [18]), 0.0005 µM; with HLA-A*02:19 (setting [18]) it was not below 20 µM; with HLA-A*03:01 [2] (setting [18]) it was not below 20 µM; with HLA-A*23:01 (setting [18]) it was not below 20 µM. Moreover, the Kd with HLA-A*24:03 (setting [18]), with HLA-A*26:01 (setting [18]), in the assay with HLA-A*29:02 (setting [18]), with HLA-B*15:01 [3] (setting [18]), with HLA-B*18:01 (setting [18]) and with HLA-B*27:03 (setting [18]) was not below 20 µM each time. Moreover, the dissociation constant (Kd) in the assay with HLA-B*39:01 (setting [18]), in the assay with HLA-B*46:01 [5] (setting [18]), in the assay with HLA-B*51:01 [6] (setting [18]) and in the assay with HLA-B*57:01 [7] (setting [18]) was not below 20 µM throughout.

Consider RSLVCLAPK, for which the Kd in the assay with HLA-A*02:01 [1] (setting [19]), in the assay with HLA-A*02:03 (setting [19]), with HLA-A*02:11 (setting [19]), in the assay with HLA-A*02:12 (setting [19]), with HLA-A*02:16 (setting [19]) and with HLA-A*02:19 (setting [19]) was not below 20 µM throughout. Besides, the Kd is not below 20 µM with HLA-A*23:01 (setting [19]); not below 20 µM with HLA-A*24:03 (setting [19]); not below 20 µM with HLA-A*26:01 (setting [19]); not below 20 µM with HLA-A*29:02 (setting [19]); 0.0465 µM in the assay with HLA-A*31:01 [8]; not below 20 µM in the assay with HLA-A*68:02 (setting [19]). In addition, the dissociation constant Kd with HLA-A*69:01 (setting [19]), with HLA-B*15:01 [3] (setting [19]), with HLA-B*18:01 (setting [19]), with HLA-B*27:03 (setting [19]), in the assay with HLA-B*39:01 (setting [19]) and in the assay with HLA-B*46:01 [5] (setting [19]) was not below 20 µM in each case. Also, the dissociation constant (Kd) with HLA-B*51:01 [6] (setting [19]) and in the assay with HLA-B*57:01 [7] (setting [19]) was not below 20 µM throughout.

For the sequence YPARVKCAL, the Kd with HLA-A*01:01 is not below 20 µM; with HLA-A*02:01 [9] it was not below 20 µM; with HLA-A*03:01 [10], not below 20 µM; with HLA-A*31:01 [11], not below 20 µM; with HLA-B*15:01 [12] it was not below 20 µM; with HLA-B*15:09 it was 1.09 µM. Besides, the Kd in the assay with HLA-B*15:17 [13], with HLA-B*27:05, with HLA-B*40:01, with HLA-B*46:01 [14], in the assay with HLA-B*48:01 and in the assay with HLA-B*51:01 [15] was not below 20 µM each time. For the same sequence, the Kd in the assay with HLA-B*57:01 [16] was not below 20 µM; with HLA-B*58:01 it was not below 20 µM; with HLA-A*11:01 it was not below 20 µM; in the assay with HLA-A*30:01, 2.54 µM; with HLA-A*69:01 (setting [20]), not below 20 µM; with HLA-B*08:01 it was 0.097 µM. This sequence returned a Kd in the assay with HLA-B*39:01 (setting [20]) of 0.0229 µM.

On to GLADQLIHM, for which the Kd is 0.0837 µM with HLA-A*02:01 [1] (setting [21]); 0.0024 µM with HLA-A*02:03 (setting [21]); 0.0008 µM in the assay with HLA-A*02:11 (setting [21]); 0.155 µM with HLA-A*02:19 (setting [21]); not below 20 µM with HLA-A*69:01 (setting [21]).

As usually defined, the Kd is the constant that tells how readily two partners part at equilibrium.
